Experimental data taken from the nanobody polyreactivity screen of Harvey et al. (2022).

Assay: yeast display, Sf9 membrane polyspecificity reagent, FACS + sequencing; frameworks hold sequencing errors
Procedure, shortened: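 Polyreactivity labels are assigned by the sorting gate from which each nanobody was recovered. The gates were low and high (top ~1%), set on anti-HA fluorescence for expression and streptavidin fluorescence for reagent binding. Before sorting, galactose-induced (36–48 hours) yeast display cells were stained for 1 hour at 4 °C with 10% biotinylated, detergent-solubilized Sf9 membrane reagent.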

Sequence	polyreactivity (PSR sort gate)
QVQLVESGGGLVQAGGSLRLSCAASGITLPVYGMGWYRQAPGKERELVAVIDIVGITNYADSVKGRFTISRDNAKNTVYLQMNSLKPEDTAVYYCAKRYVDLADGGEYYYWGQGTQVTVSS	low polyreactivity
QVQLVESGGGLVQAGGSLRLSCAASGFTFLYNVMGWYRQAPGKERELVAAISQSGTDTYYADSVKGRFTISRDNAKNTVYLQMNSLKPEDTAVYYCATEYYSQPRDDSWGQGTQVTVSS	low polyreactivity
QVQLVESGGGLVQAGGSLRLSCAASGSTFPFYVMGWYRQAPGKERELVASITATGSSTYYADSVKGRFTISRDNAKNTVYLQMNRLKPEDTAVYYCAAPYFGWYLGYYWYREYDYWGQGTQVTVSS	low polyreactivity
QVQLVESGGGLVQAGGSLRLSCDASGRILIGYTMGWYRQAPGKERELVARINYSGGSTYYADSVKGRFTISRDNAKNTVYLQMNSLKPEDTAVYYCDADVRRGYYTWPPRRVYYWGQGTQVTVSS	high polyreactivity
QVQLVESGGGLVQAGGSLRISCAASGTTFPYNGMGWYRQAPGKERELVASISWSGASTYYADSVKGRFTISRDNAKNTVYLQMNSLKPEDTAVYYCAADPGYYSWGSSQDDYWGQGTQVTVSS	low polyreactivity
QVQLVESGGGLVQAGGSLRISCDASGSTFAWYAMGWYRQAPGKERELVAAISRTGRTYYADSVKGRFTISRDNAKNTVYLQMNRLTPEDTAVYYCAGRIERFYRDQRYDYWGQGTQVTVSS	high polyreactivity
QVQLVETGGGLVQAGGSLRLSCAPSGSTFYYYVMGWYRPPPGNERELVAAINSGGSTYYADSVKGRFTISRDNAKNTVYLQMNSLKPEDTAVYYCAKSWSYWYQYFYWGQGTQVTVSS	low polyreactivity
QVQLVESGGGLVQAGGSLRLSCAASGIIFRGNAMGWYRQEPGKESEIVAAISLRGSRTYYADSVKGRFTISRDNAKNTVYLQMNSLKPEDSAVYYCNARGGTSPFGSDYWGQGTQVTVSS	high polyreactivity
QVQLVESGGGLVQGGGSLRLSCDDSGRNFNAYSRGWYRQATAKERELVAAISSRGGSTYYADSVKGRFTISRDNEMNSVYLKMNSLQPEDSAVYYFAAGIYTATGYGYWGQGTQVTVSS	high polyreactivity
QDQLVESGGGLVQAGGSLRLSCAASGSTFGYYAMGWYRQAPGKERELVAAISWRGGTYYADSVKGRFTISRDNAKNTVYLQMNSLKPEDTAVYYCAADDYIVSRYRYGVRYGYWGQGTQVTVSS	high polyreactivity
QVQLVESGGGLVQAGGSLRLSCAASGRTLKTYVMGWYRQAPGKERELVAAITSGGRTYYADSVKGRFTISRDNAKNTVYVQMNSLKPEDTAVYYCNAQLYWSRSWYLFDNTSFDYWGQGTQVTVSS	low polyreactivity
QVQLVESGGGLVQAGGSLRLSCAATGITFEGYAMGWYRQAPGKERELVAAIRSSGTSTYYADSVKGRFTISRDNAKNTVYLQMNSLKPEDTAVYYCNRARSSSRYDYCGQGTQVTVSS	low polyreactivity
QVQLVESGGGLVQAGGSLRLSCAASGSIFYPYAMGWYRQAPGKERELVAAITSSTGSTYYADSVKGRFTISRDHAKNTVYLQMNSLKPEDTAVYYCAAAGYWSYFMMDYWGQGTQVTVSS	low polyreactivity
QVQLVESGGGLVQAGGSLRLSCAASGSIAMGWYRQAPGKERELVATISSSGGSTYYADSVKGRFTISRDNAKNTVYLQMNSLKPEDTAVYYCNTPQYLGPLYSEFDYWGQGTQVTVSS	low polyreactivity
QVQLVESGGGLVQAGGSLRLSCAASGRILGRNAMGWYRQAPGKEREFVAGISYSGTSTYYADSVKGRFTISRDNAKNTVYLQMNSLKPEDTAVYYCNVKNQVYRRYYYWGQGTQVTVSS	high polyreactivity
QVQLVESGGGLVQAGGSLRLSCAASGFTFAGYAMGWYRQAPGKDRELVAAISWSGGRTYYADSVKGRFTISRDNAKNTVYLQMNSLKPEDTAVYYCAKLTLSSRWYYIYDYWGQGTQVTVSS	high polyreactivity
QVQLVESGGGLVQAGGSLRLSCAASGSIFLGNAMGWYRQAPGKERELVAGITNGDNTNYADSVKGRFTISRDNAKNTDYLQMNSLKPEDTAVYYCATGPYLIYDYWGQGTQVTVSS	low polyreactivity
QVQLVESGGGLVQAGGSLRLSCAASGSTFRWNAMGWYRQAPWKERELVAAITWSGGRTYYADSVKGRFTISRDNAKNTVYLQMNSLKPEDTAVYYCAAVRGPEHWYDYYYWGQGTQVTVSS	high polyreactivity
QLQLVESGGGLVQAGGSLRLSCAASGSTFSPYAMGWYRQAPGKERELVAAISASGGGTYYADSVKWRLTISRDNAKNTVYLQMNSLKPEDTAVYYCARDYGWDISKGRYGYWGQGTQVTVSS	low polyreactivity
QVQLVESGGGLVQAGGTLRLSCAASGRIFGPYAMGWYRQAPWKERELVAAISFSGSGTYYADSVKGRFTISRDNAKNTVYFQMNSLKAEDTAVYYCAATSRKIVAFDHDYWGQGTQVTVSS	low polyreactivity
QVQLVESGGGLVQAGGMLRLSCAASGRIFGVNAMGWYRQAPGKERELVAVISSGGSTYYADSVKGRFTISRDNAKNTVYVQMNSLKPEDTAVYYCNAVVGRWFPYNLSDYWGQGTQVTVSS	low polyreactivity
QVQLVESGGGLVQAGGSLRLSCAASGITFWYYAMGWYRQAPGKERELVAAISSSGGRTTYADSVKGRFTISRDNAKNTVYLQMNSLKPEDTAVYYCATTYGDRYVTAYDYWGQGTQVTVSS	high polyreactivity

Sequence	polyreactivity (PSR sort gate)
QVQLVESGGGLVQAGGSLRLSCAASGFTFRFNAMGWYRQAPGKERELVAAIRYSSGSTYYADSVKGRFTISRDNAKNTVYLEMNSLKPEDTAVYYCAAEQDYNRGYVTGRYYYWGQGTQVTVSS	high polyreactivity
QVQLVESGGGLVQAGGSHRLSCAASGFTFIGYPMGWYRQAPGKERELVAAITQSGGSTFYADSVKGRFTISRDNAKNTVYLHMNSLKPEDTAVYYCNAYRKFRYWGHGTQVTVSS	low polyreactivity
QVQLVESGGGLVQAGGSLRLSCAASGSTFFNNAMGWYRQAPGKERELVAAITGGGGRTYYADSVKGRFTISRDNAKNTVYLQMNSLKPEDTAVYYCAAVPRRSYGGYPYYYWGQGTQVTVSS	low polyreactivity
QVQLVESGGGLVQAGGSLRLSCAPSGFIFQANAMGWYRQAPGKERELLAAIDDGDSTYADSVKGRFTISRDNAKNTVYLQLNSLKPEDTAVYFCATRRNRSYDYWGQGTQVTVSS	low polyreactivity
QVQLVESGGGLVQAGGSLRLSCAASGSTIRYYAMGWYRQAPGKERELVAAISYGGGITNYADSVKGRFTISRDNAKNTVYLQMNSLKPEDTAVYCCAAYYRITRYDYWGQGTQVTVSS	high polyreactivity
QVQLVESGGGLVQAGGSLRLSCAASGRIFYYYAMGWYRQAPGKERELVAAITRGGGTYYADSVKGRFTISRDNAKNTVYLQMNSLKPEDTAVYYCAKRGPPESHHPYRYRFDYWGQGTQVTVSS	low polyreactivity
QVQLVESGGGLVQAGGSLRLSCAASGSILDHYAMGRYRQAPGKEREFVAAISIRGGSTYYADSVKGRFTISRDNEKNTVYLHMNSLKPEDTAVYYCNALSNYVYRRNDYGGQGTQVTVSS	low polyreactivity
QVQLVESGGGLVQAGGSLRLTCAASGSTLNYYAMGWYRQAPGKERELVAAIRSGGNTNYADSVKGRFTISRDNAKNTVYLQMNSLKPEDTAVYYCAKDESYFYDRVPLDYWGQGTQVTVSS	low polyreactivity
QVQLVESGGGLVQAGGSLRLSCAASGSIFTYYAKGWYRQAPGKERELVAAISRRGTRTYYADSVKGRFTISRDNAKNTVYLQMNSLKPEDTAVYYCAKVGYTYRAYEFAYWGQGTQVTVSS	high polyreactivity
QVQLVESGGGLVQAGGSLRLSCAASGSIFTPYAMGWYRQAPGKERELVATISARGGSTYYADSVKGRFTISRDNAKNTVYLQMNSLKPEDTAVYYCNVDYAQRVFLYDYWGQGTQVTVSS	low polyreactivity
QVQLVESGGGLVQAGGSLRLSSAASGSTFHLYAMGWYRQAPGKEREFVAAIRGRGGNTYADSVKGRFTISRDNAKNTVYLQMNSLKPEDTAVYYCAAPLLRDLRSPYSYNYWGQGTQVTVSS	low polyreactivity
QVQLVESGGGLVQAGGSLRLSCAASGRTFRFTAMGWYRQAPGKERELVAAISFRGGSTYYADSVKGRFTISRDNAKNTVYLQMNSLKPEDTAVYYCAARARTGTYRDMYYWGQGTQVTVSS	high polyreactivity
QVQLVESGGGLVQAGGSLRLSCAASGRIVGLYAKGWYRQAPGKERELVATITRRAGSTYYADSVKGRFTISRDYAKNTVYLLMNSLKPEDTAVYYCAASALRFNSRFSHWYNYWGQGTQVTVSS	high polyreactivity
QVQLVESGGGLVQAGGSLRLSCAASGFTYDNYAMGWYRQAPGKERELVAAIRRSGSRTYYPDSVKGRFTISRDNAKNTVYLQMNSLKPEDTAVYYCAAVWYRLYGYCGQGTQVTVSS	low polyreactivity
QDQLVESGGGLVQAGGSLRLSCAASGSIFTSYAMGWYRQAPGKERELVAAITGGDSTNYADSVKGRFTISRDNAKNTVYLQMNSLKPEDTAVYYCNAADPNYFDRDTHYYWGQGTQVTVSS	low polyreactivity
QVQLQESGGGLVHAAGILRLSCAACGNIFPSAVMGWYRQALGKEREFVATLNSGSNTYYADSVKGRFTIRRDNAKNTVYLQMNSLKLEDTGVYYCAAYFNLPAWHTYWGQGTQVTVSS	low polyreactivity
QVQLVESGGGLVQAGGSLRLSCAASGRIFPLNAMGWYRQAPGKERELVAAIRNGGRTNYADSVKGRFTISPDNAKNTVYVQMNSLKPEDTAVYYCSFTLSSVLQYDSWGQGTQVTVSS	low polyreactivity
QVQLVESGGGLVQAGGSLRLSCAASGSIFTPYAMGWYRQAPGKERELVAAISRSGGSTYYADSVKGRFTISRDNAKITVYLQMNSLKPEDTAVYYCAVVASLSHTETPEYDYWGQGTQGTVSS	low polyreactivity
QVQLVESGGGLVQAGGSLRLSCAASGSIFTYTMGWYRQAPGKERELVAVISRSGGRTYYADSVKGRFTISRDNAKNTVYLQMNSLKPEDTAVYYCATDGHNGYYGRYDYWGQGTQVTVSS	high polyreactivity
QVQLVESGGGLVQAGGRLRLSCAASGRIFIYYAMGLYRQAPGKERELVAAISWGGGRTYYADSVKGRFTISRDNAKNTVYLQMNSLKPEDTAVYYCAAGVYTGQHEYDYWGQGTQVTVSS	low polyreactivity
QVQLVESGGGLVQAGGSLRLSCAASGLTFSDYAMGWYRQAPGKERELVAAITYNGGSTYYADSVKGRFTISRDNAKNTVYLQMNSLKPEDTAVYYCAADTDDVGLRDYWGQGTQVTVSS	low polyreactivity
